In patent US20230093708A1, “PROTEIN NANOPARTICLE DESIGN AND APPLICATION” (Duke University, priority 2020, published 2023):
Non-standard residues stand in square brackets, D forms with d. Phe(4-N3) = [N-]=[N+]=Nc1ccc(C[C@H](N)C(=O)O)cc1

What was measured:
[1] = DLS of native and crosslinked pAzF diblock constructs in PBS and GuHCl; assay type: physicochemical; details: for hydrodynamic radius (DLS): Table 12, crosslinked UAA5-40-K8D4 ligand constructs
Source text: We wanted to thoroughly investigate the effects of pAzF-introduction as well as nanoparticle crosslinking on nanoparticle self-assembly. For this, we started by characterizing solely our five different ELP/RLP diblock architectures without any C-terminal functionalization. After expression and purification of the diblock constructs using ITC, the pAzF-containing constructs were crosslinked in solution by exposure to UV irradiation and characterized using dynamic light scattering (DLS). […] Generally, both processes seem to have increased the measured radii with this effect being more pronounced for the worm-forming constructs.
Apart from changes in nanoparticle morphology we were particularly interested in the effect pAzF-crosslinking had on their stability. […] GuHCl is a well-known denaturing agent that disrupts any inter- and intramolecular electrostatic forces and completely breaks down the quaternary, tertiary and secondary structure of most known proteins. Covalent bonds—such as the ones formed by pAzF-crosslinking—however remain unaffected by GuHCl, thus, the addition of this denaturing agent was expected to give us insights on the stability of our crosslinked nanoparticles. […] All native samples on the other hand resorted to complete unimerization upon exposure to GuHCl. As the Rh values for the crosslinked particles in GuHCl were generally larger than in PBS, the DLS data furthermore indicates a swelling behavior in the presence of the denaturing agent. This can most probably be attributed to the RLP core which is assumed to be completely collapsed in PBS but will however try to reach an elongated, random-coil morphology in the presence of GuHCl.
The first step of the characterization process was to produce crosslinked particles for the functionalized diblock constructs and to analyze whether the attachment of the ligands had caused any significant changes in particle size. […] Whatever the reason was, it had no effect on the crosslinking process as the particles still remained stable after GuHCl exposure.
Dynamic light scattering of cross-linkable protein nanoparticles was performed. […] However, these crosslinked particles remain assembled, actually growing slightly in size due to chain swelling of the core and corona in this new buffer. These novel scaffolds support various targeting domains and assemble into nearly identically sized nanoparticles between […] in hydrodynamic radius.

[2] = Temperature-programmed dynamic light scattering; assay type: physicochemical; details: between 4 °C and 37 °C; micelles 20-37 °C; 10 μM in 140 mM PBS
Method: Temperature-programmed dynamic light scattering experiments were carried out using a Dynapro plate reader (Wyatt Technology; Santa Barbara, Calif.) with samples filtered through 0.45 μm Millex-GV filters. Data were collected at increments of 1° C., and the cumulant fit hydrodynamic radius was taken as the radius. The Tt was defined as the temperature at which aggregates of size hundreds of nanometers were formed.
Each block co-polypeptide was analyzed by dynamic light scattering (DLS) at several temperatures between 4° C. and 37° C. to determine the thermal stability of the micelles, and to determine their radius of hydration (Rh). […] In contrast, RLP40-ELP80 (SEQ ID NO: 84) and RLP40-ELP80-Fn3 (SEQ ID NO: 96) self-assembled into micelles with a Rh of 30 and 32 nm, respectively, between 20-37° C. (FIG. 15).
Therefore, to get a more accurate picture, we monitored the Rh as we slowly cooled the solution. We observed two different overall behaviors. [S]-40-[QHN]-40 (SEQ ID NO: 100) upon cooling underwent a clear unimer to micelle transition at ˜55° C. and a clear micelle to aggregate transition at 28° C. (FIG. 32B). A unimer to micelle transition that is temperature dependent is known as the critical micellization temperature (CMT). As we know from before, this UCST aggregation temperature is dependent on the solution concentration. [S]-80-[QHN]-40 (SEQ ID NO: 101) remained a micelle at the highest temperature we could measure with the instrument. Upon cooling the size of the aggregate increased slightly until a clear aggregate transition at 18° C.

[3] = Cryo-TEM micelle core size, inter-core spacing and aspect ratio; assay type: physicochemical
Procedure, shortened: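 Vitrified 10 μM RLPn-ELP80 (3 s blot, chamber at 15° C., 100% humidity) imaged by cryo-TEM at 80 keV. Core size and spacing measured manually on at least 25 particles; aspect ratio from the longest straight line of a particle and its perpendicular.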

[4] = Static and dynamic light scattering (SLS/DLS) of block co-polypeptides; assay type: physicochemical
Procedure, shortened: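 Samples at 10 μM in PBS (140 mM NaCl, 10 mM phosphate, 3 mM KCl, pH 7.4), filtered 0.45 μm, measured at 15 °C over 30°–150° in 5° steps. Rh from cumulant fit of DLS, extrapolated to zero angle. Rg and MW from partial Zimm plots of SLS.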

K562+αvβ3 cell line = experiment: Flow cytometry cell uptake of Alexa488-labeled micelles; assay type: cell-based; details: 10 μM, 37 °C, 2 hours
Method: Approximately 1×10^8 cells were harvested from either K562 or K562+αvβ3 cell lines and resuspended into 1 mL of serum-free medium containing 10 μM of the various Fn3-decorated and control block polypeptides. LM609 antibody was also resuspended at 10 μM in serum-free medium. Micelles were prepared from a mixture of ˜10% Alexa 488 dye-labeled RLP-ELP block co-polypeptides and 90% unlabeled polypeptides on a molar basis. The cells were incubated at 37° C. with the labeled micelles for a specified time, then rinsed with 1 mL of Hanks Buffered Saline Solution (HBSS), collected by centrifugation at 500 RCF for 5 min at 20° C., and resuspended in HBSS+1% BSA. Cells were maintained on ice until they were analyzed by flow cytometry (BD Accuri C5). The cell fluorescence intensity of Alexa 488 (Green) was quantified after gating to remove cellular debris on unstained control samples.
To assess the intracellular uptake of these particles, we used a cell line stably transfected with the αvβ3 integrin. The native cell line, K562, has endogenously low levels of expression of this receptor and therefore serves as the receptor-negative control, and the un-decorated RLPXX-ELP80 micelles serve as ligand-negative controls for each type—size and shape—of micelle. […]

[5] = Table 8, 15 °C, 140 mM PBS, 10 μM

B1: UAA5-40: pAzF-containing sphere-forming diblock construct (protein)
chain: QYPSDGRGQYPSDGRGQYPSDGRGQYPSDGRGQYPSDGRGQYPSDGRGQYPSDGRGQYPSDGRGQYPSDGRGQYPSDGRGQYPSDGRGQYPSDGRGQYPSDGRGQYPSDGRGQYPSDGRGQYPSDGRGQYPSDGRGQYPSDGRGQYPSDGRGQYPSDGRG[Phe(4-N3)]QYPSDGRGQYPSDGRGQYPSDGRGQYPSDGRGQYPSDGRGQYPSDGRGQYPSDGRGQYPSDGRGQYPSDGRGQYPSDGRGQYPSDGRGQYPSDGRGQYPSDGRGQYPSDGRGQYPSDGRGQYPSDGRGQYPSDGRGQYPSDGRGQYPSDGRGQYPSDGRG[Phe(4-N3)]QYPSDGRGQYPSDGRGQYPSDGRGQYPSDGRGQYPSDGRGQYPSDGRGQYPSDGRGQYPSDGRGQYPSDGRGQYPSDGRGQYPSDGRGQYPSDGRGQYPSDGRGQYPSDGRGQYPSDGRGQYPSDGRGQYPSDGRGQYPSDGRGQYPSDGRGQYPSDGRG[Phe(4-N3)]QYPSDGRGQYPSDGRGQYPSDGRGQYPSDGRGQYPSDGRGQYPSDGRGQYPSDGRGQYPSDGRGQYPSDGRGQYPSDGRGQYPSDGRGQYPSDGRGQYPSDGRGQYPSDGRGQYPSDGRGQYPSDGRGQYPSDGRGQYPSDGRGQYPSDGRGQYPSDGRG[Phe(4-N3)]
RH (nm) ([1]; 15 μm in 7.2M GuHCl, crosslinked): 52.1 ± 1.0 nm | RH (nm) ([1]; 15 μm in 7.2M GuHCl, native (not crosslinked)): 5.9 ± 1.6 nm | RH (nm) ([1]; 15 μm in PBS, crosslinked): 34.3 ± 0.3 nm | RH (nm) ([1]; 15 μm in PBS, native (not crosslinked)): 29.8 ± 0.2 nm | RH (nm) ([1]; Table 11, crosslinked UAA5-40-K8D4-ligand constructs, 0.7 μM in 7.2M GuHCl): 52.1 ± 1.0 nm | RH (nm) ([1]; Table 11, crosslinked UAA5-40-K8D4-ligand constructs, 7 μM in PBS): 34.3 ± 0.3 nm | hydrodynamic radius (DLS) ([1]; 0.7 μM in 7.2M GuHCl): 52.1 ± 1.0 | hydrodynamic radius (DLS) ([1]; 7 μM in PBS): 34.3 ± 0.3

B2: RLP80-ELP80: RLP-ELP block co-polypeptide forming worm-like micelles (protein)
chain: QYPSDGRGQYPSDGRGQYPSDGRGQYPSDGRGQYPSDGRGQYPSDGRGQYPSDGRGQYPSDGRGQYPSDGRGQYPSDGRGQYPSDGRGQYPSDGRGQYPSDGRGQYPSDGRGQYPSDGRGQYPSDGRGQYPSDGRGQYPSDGRGQYPSDGRGQYPSDGRGQYPSDGRGQYPSDGRGQYPSDGRGQYPSDGRGQYPSDGRGQYPSDGRGQYPSDGRGQYPSDGRGQYPSDGRGQYPSDGRGQYPSDGRGQYPSDGRGQYPSDGRGQYPSDGRGQYPSDGRGQYPSDGRGQYPSDGRGQYPSDGRGQYPSDGRGQYPSDGRGQYPSDGRGQYPSDGRGQYPSDGRGQYPSDGRGQYPSDGRGQYPSDGRGQYPSDGRGQYPSDGRGQYPSDGRGQYPSDGRGQYPSDGRGQYPSDGRGQYPSDGRGQYPSDGRGQYPSDGRGQYPSDGRGQYPSDGRGQYPSDGRGQYPSDGRGQYPSDGRGQYPSDGRGQYPSDGRGQYPSDGRGQYPSDGRGQYPSDGRGQYPSDGRGQYPSDGRGQYPSDGRGQYPSDGRGQYPSDGRGQYPSDGRGQYPSDGRGQYPSDGRGQYPSDGRGQYPSDGRGQYPSDGRGQYPSDGRGQYPSDGRGQYPSDGRGQYPSDGRGGPGAGVPGGGVPGAGVPGGGVPGAGVPGGGVPGAGVPGGGVPGAGVPGGGVPGAGVPGGGVPGAGVPGGGVPGAGVPGGGVPGAGVPGGGVPGAGVPGGGVPGAGVPGGGVPGAGVPGGGVPGAGVPGGGVPGAGVPGGGVPGAGVPGGGVPGAGVPGGGVPGAGVPGGGVPGAGVPGGGVPGAGVPGGGVPGAGVPGGGVPGAGVPGGGVPGAGVPGGGVPGAGVPGGGVPGAGVPGGGVPGAGVPGGGVPGAGVPGGGVPGAGVPGGGVPGAGVPGGGVPGAGVPGGGVPGAGVPGGGVPGAGVPGGGVPGAGVPGGGVPGAGVPGGGVPGAGVPGGGVPGAGVPGGGVPGAGVPGGGVPGAGVPGGGVPGAGVPGGGVPGAGVPGGGVP
Rh (DLS at several temperatures) [2]: 112 nm | core radius (cryo-TEM) [3]: 19.9 nm | spacing between particle cores (cryo-TEM) [3]: 34.7 nm | Spacing (nm) ([3]; Table 2, inter-core spacing, mean ± standard deviation): 34.7 ± 4.2 nm | Core radius (nm) ([3]; Table 2, mean ± standard deviation, 10 μM in 140 mM PBS): 19.9 ± 2.8 nm | Core Diameter (nm) [n = 30] [3, 5]: 39.4 ± 5.4 nm | Intra-core Spacing (nm) [n = 30] [3, 5]: 35.0 ± 4.5 nm | aggregation number (Nagg) [4]: in the thousands of chains | hydrodynamic radius (Rh) [4]: over 100 nm | radius of gyration (Rg) [4]: above 140 nm | shape factor / form factor (Rg/Rh) [4]: around 1.2 | Nagg ([4]; Table 1, 10 μM in PBS, 15 °C): 2240 | Rg(nm) ([4]; Table 1, 10 μM in PBS, 15 °C): 145.4 nm | Rh (nm) ([4]; Table 1, 10 μM in PBS, 15 °C): 114.3 nm | ρ ([4]; Table 1, shape factor Rg/Rh): 1.27 | cell fluorescence (Geometric Mean±StDev) (K562+αvβ3 cell line): 24904±13884

B3: RLP20-ELP80: RLP-ELP block co-polypeptide, (QYPSDGRG)20-(VPG[A:G]G)80 (protein)
chain: QYPSDGRGQYPSDGRGQYPSDGRGQYPSDGRGQYPSDGRGQYPSDGRGQYPSDGRGQYPSDGRGQYPSDGRGQYPSDGRGQYPSDGRGQYPSDGRGQYPSDGRGQYPSDGRGQYPSDGRGQYPSDGRGQYPSDGRGQYPSDGRGQYPSDGRGQYPSDGRGGAGVPGGGVPGAGVPGGGVPGAGVPGGGVPGAGVPGGGVPGAGVPGGGVPGAGVPGGGVPGAGVPGGGVPGAGVPGGGVPGAGVPGGGVPGAGVPGGGVPGAGVPGGGVPGAGVPGGGVPGAGVPGGGVPGAGVPGGGVPGAGVPGGGVPGAGVPGGGVPGAGVPGGGVPGAGVPGGGVPGAGVPGGGVPGAGVPGGGVPGAGVPGGGVPGAGVPGGGVPGAGVPGGGVPGAGVPGGGVPGAGVPGGGVPGAGVPGGGVPGAGVPGGGVPGAGVPGGGVPGAGVPGGGVPGAGVPGGGVPGAGVPGGGVPGAGVPGGGVPGAGVPGGGVPGAGVPGGGVPGAGVPGGGVPGAGVPGGGVPGAGVPGGGVPGAGVPGGGVPGAGVPGGGVPGAGVPGGGVP
Rh (DLS at several temperatures) [2]: ~7 nm | hydrodynamic radius (Rh) [4]: 5.5 nm | Rh (nm) ([4]; Table 1, 10 μM in PBS, 15 °C): 5.5 nm
